From US20210268073A1, “METHODS OF REDUCING POLYSORBATE DEGRADATION IN DRUG FORMULATIONS” (Regeneron Pharmaceuticals, Inc., priority 2020, published 2021)

Details: pH 6

B1: human liver carboxylesterase 1: commercial human liver carboxylesterase 1 purchased from Abcam, SEQ ID NO: 12 (protein, listed as Homo sapiens)
chain: MWLRAFILATLSASAAWGHPSSPPVVDTVHGKVLGKFVSLEGFAQPVAIFLGIPFAKKPLGPLRFTPPQPAEPWSFVKNATSYPPMCTQDPKAGQLLSELFTNRKENIPLKLSEDCLYLNIYTPADLTKKNRLPVMVWIHGGGLMVGAASTYDGLALAAHENVVVVTIQYRLGIWGFFSTGDEHSRGNWGHLDQVAALRWVQDNIASFGGNPGSVTIFGESAGGESVSVLVLSPLAKNLFHRAISESGVALTSVLVKKGDVKPLAEQIAITAGCKTTTSAVMVHCLRQKTEEELLETTLKMKFLSLDLQGDPRESQPLLGTVIDGMLLLKTPEELQAERNFHTVPYMVGINKQEFGWLIPMQLMSYPLSEGQLDQKTAMSLLWKSYPLVCIAKELIPEATEKYLGGTDDTVKKKDLFLDLIADVMFGVPSVIVARNHRDAGAPTYMYEFQYRPSFSSDMKPKTVIGDHGDELFSVFGAPFLKEGASEEEIRLSKMVMKFWANFARNGNPNGEGLPHWPEYNQKEGYLQIGANTQAAQKLKDKEVAFWTNLFAKKAVEKPPQTEHIEL
Q: With B1 as the molecule, how does the “PS80 degradation pattern compared with mAb-1” value read?
A: equivalent degradation pattern
